The target of the test is T1, Rev7, accessory subunit of S. cerevisiae DNA polymerase ζ (S. cerevisiae), P38927.
T1 chain: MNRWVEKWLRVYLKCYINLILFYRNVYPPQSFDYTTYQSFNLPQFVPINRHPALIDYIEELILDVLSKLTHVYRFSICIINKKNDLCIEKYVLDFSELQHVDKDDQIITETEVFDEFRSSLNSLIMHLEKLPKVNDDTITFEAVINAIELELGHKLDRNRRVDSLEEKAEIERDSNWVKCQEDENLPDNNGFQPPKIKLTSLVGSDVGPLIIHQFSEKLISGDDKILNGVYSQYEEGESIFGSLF
Kind of test: cryo-EM structure. The note with it: remark: other sources report otherwise.

B1: Rev7, accessory subunit of S. cerevisiae DNA polymerase ζ, P38927 1-245 (natural protein)
chain: MNRWVEKWLRVYLKCYINLILFYRNVYPPQSFDYTTYQSFNLPQFVPINRHPALIDYIEELILDVLSKLTHVYRFSICIINKKNDLCIEKYVLDFSELQHVDKDDQIITETEVFDEFRSSLNSLIMHLEKLPKVNDDTITFEAVINAIELELGHKLDRNRRVDSLEEKAEIERDSNWVKCQEDENLPDNNGFQPPKIKLTSLVGSDVGPLIIHQFSEKLISGDDKILNGVYSQYEEGESIFGSLF
On to B1, for which the stoichiometry N came to 2.

The stoichiometry N is the number of molecules, sites or subunits per partner or assembly.

Values taken from article PMC7554088.
